Reference: patent US20250339531A1, “DUX4 POLYPEPTIDES AND NUCLEIC ACIDS FOR TREATING INFLAMMATORY AND AUTOIMMUNE CONDITIONS” (Fred Hutchinson Cancer Center, priority 2021, published 2025)

B1: JSRP1 (protein)
chain: MSMTTRAWEELDGGLGSCQALEDHSALAETQEDRASATPRLADSGSVPHDSQVAEGPSVDTRPKKMEKEPAARGTPGTGKERLKAGASPRSVPARKKAQTAPPLQPPPPPPALSEELPWGDLSLNKCLVLASLVALLGSAFQLCRDAVPGEAALQARVPEPWVPPSSAPREPSSPLPKFEAQAPPSAPPAPRAEAEVRPKIPGSREAAENDEEEPGEATGEAVREDRVTLADRGPKERPRREGKPRKEKPRKEERPKKERPRKEERPRAAREPREALPQRWESREGGHRPWARDSRDAEPRKKQAWVSPRRPDEEQRPGSRQKLRAGKGRD
B2: RBBP7 (protein)
chain: ASKEMFEDTVEERVINEEYKIWKKNTPFLYDLVMTHALQWPSLTVQWLPEVTKPEGKDYALHWLVLGTHTSDEQNHLVVARVHIPNDDAQFDASHCDSDKGEFGGFGSVTGKIECEIKINHEGEVNRARYMPQNPHIIATKTPSSDVLVFDYTKHPAKPDPSGECNPDLRLRGHQKEGYGLSWNSNLSGHLLSASDDHTVCLWDINAGPKEGKIVDAKAIFTGHSAVVEDVAWHLLHESLFGSVADDQKLMIWDTRSNTTSKPSHLVDAHTAEVNCLSFNPYSEFILATGSADKTVALWDLRNLKLKLHTFESHKDEIFQVHWSPHNETILASSGTDRRLNVWDLSKIGEEQSAEDAEDGPPELLFIHGGHTAKISDFSWNPNEPWVICSVSEDNIMQIWQMAENIYNDEESDVTTSELEGQGS
B3: PLOD1 (protein)
chain: KGDAKPEDNLLVLTVATKETEGFRRFKRSAQFFNYKIQALGLGEDWNVEKGTSAGGGQKVRLLKKALEKHADKEDLVILFADSYDVLFASGPRELLKKFRQARSQVVFSAEELIYPDRRLETKYPVVSDGKRFLGSGGFIGYAPNLSKLVAEWEGQDSDSDQLFYTKIFLDPEKREQINITLDHRCRIFQNLDGALDEVVLKFEMGHVRARNLAYDTLPVLIHGNGPTKLQLNYLGNYIPRFWTFETGCTVCDEGLRSLKGIGDEALPTVLVGVFIEQPTPFVSLFFQRLLRLHYPQKHMRLFIHNHEQHHKAQVEEFLAQHGSEYQSVKLVGPEVRMANADARNMGADLCRQDRSCTYYFSVDADVALTEPNSLRLLIQQNKNVIAPLMTRHGRLWSNFWGALSADGYYARSEDYVDIVQGRRVGVWNVPYISNIYLIKGSALRGELQSSDLFHHSKLDPDMAFCANIRQQDVFMFLTNRHTLGHLLSLDSYRTTHLHNDLWEVFSNPEDWKEKYIHQNYTKALAGKLVETPCPDVYWFPIFTEVACDELVEEMEHFGQWSLGNNKDNRIQGGYENVPTIDIHMNQIGFEREWHKFLLEYIAPMTEKLYPGYYTRAQFDLAFVVRYKPDEQPSLMPHHDASTFTINIALNRVGVDYEGGGCRFLRYNCSIRAPRKGWTLMHPGRLTHYHEGLPTTRGTRYIAVSFVDP
B4: ATP5F1A (protein)
chain: QKTGTAEMSSILEERILGADTSVDLEETGRVLSIGDGIARVHGLRNVQAEEMVEFSSGLKGMSLNLEPDNVGVVVFGNDKLIKEGDIVKRTGAIVDVPVGEELLGRVVDALGNAIDGKGPIGSKTRRRVGLKAPGIIPRISVREPMQTGIKAVDSLVPIGRGQRELIIGDRQTGKTSIAIDTIINQKRFNDGSDEKKKLYCIYVAIGQKRSTVAQLVKRLTDADAMKYTIVVSATASDAAPLQYLAPYSGCSMGEYFRDNGKHALIIYDDLSKQAVAYRQMSLLLRRPPGREAYPGDVFYLHSRLLERAAKMNDAFGGGSLTALPVIETQAGDVSAYIPTNVISITDGQIFLETELFYKGIRPAINVGLSVSRVGSAAQTRAMKQVAGTMKLELAQYREVAAFAQFGSDLDAATQQLLSRGVRLTELLKQGQYSPMAIEEQVAVIYAGVRGYLDKLEPSKITKFENAFLSHVVSQHQALLGTIRADGKISEQSDAKLKEIVTNFLAGFEA
B5: PLOD2 (protein)
chain: ADSEKPSSIPTDKLLVITVATKESDGFHRFMQSAKYFNYTVKVLGQGEEWRGGDGINSIGGGQKVRLMKEVMEHYADQDDLVVMFTECFDVIFAGGPEEVLKKFQKANHKVVFAADGILWPDKRLADKYPVVHIGKRYLNSGGFIGYAPYVNRIVQQWNLQDNDDDQLFYTKVYIDPLKREAINITLDHKCKIFQTLNGAVDEVVLKFENGKARAKNTFYETLPVAINGNGPTKILLNYFGNYVPNSWTQDNGCTLCEFDTVDLSAVDVHPNVSIGVFIEQPTPFLPRFLDILLTLDYPKEALKLFIHNKEVYHEKDIKVFFDKAKHEIKTIKIVGPEENLSQAEARNMGMDFCRQDEKCDYYFSVDADVVLTNPRTLKILIEQNRKIIAPLVTRHGKLWSNFWGALSPDGYYARSEDYVDIVQGNRVGVWNVPYMANVYLIKGKTLRSEMNERNYFVRDKLDPDMALCRNAREMGVFMYISNRHEFGRLLSTANYNTSHYNNDLWQIFENPVDWKEKYINRDYSKIFTENIVEQPCPDVFWFPIFSEKACDELVEEMEHYGKWSGGKHHDSRISGGYENVPTDDIHMKQVDLENVWLHFIREFIAPVTLKVFAGYYTKGFALLNFVVKYSPERQRSLRPHHDASTFTINIALNNVGEDFQGGGCKFLRYNCSIESPRKGWSFMHPGRLTHLHEGLPVKNGTRYIAVSFIDP
B6: NCEH1 (protein)
chain: MRSSCVLLTALVALAAYYVYIPLPGSVSDPWKLMLLDATFRGAQQVSNLIHYLGLSHHLLALNFIIVSFGKKSAWSSAQVKVTDTDFDGVEVRVFEGPPKPEEPLKRSVVYIHGGGWALASAKIRYYDELCTAMAEELNAVIVSIEYRLVPKVYFPEQIHDVVRATKYFLKPEVLQKYMVDPGRICISGDSAGGNLAAALGQQFTQDASLKNKLKLQALIYPVLQALDFNTPSYQQNVNTPILPRYVMVKYWVDYFKGNYDFVQAMIVNNHTSLDVEEAAAVRARLNWTSLLPASFTKNYKPVVQTTGNARIVQELPQLLDARSAPLIADQAVLQLLPKTYILTCEHDVLRDDGIMYAKRLESAGVEVTLDHFEDGFHGCMIFTSWPTNFSVGIRTRNSYIKWLDQNL
B7: IGKV2-40 (protein, UniProt A0A087WW87 20-121, looked up)
Immunoglobulin kappa variable …: EDIVMTQTPLSLPVTPGEPASISCRSSQSLLDSDDGNTYLDWYLQKPGQSPQLLIYTLSYRASGVPDRFSGSGSGTDFTLKISRVEAEDVGVYYCMQRIEFP
B8: AHCYL1 (protein)
chain: SMPDAMPLPGVGEELKQAKEIEDAEKYSFMATVTKAPKKQIQFADDMQEFTKFPTKTGRRSLSRSISQSSTDSYSSAASYTDSSDDEVSPREKQQTNSKGSSNFCVKNIKQAEFGRREIEIAEQDMSALISLRKRAQGEKPLAGAKIVGCTHITAQTAVLIETLCALGAQCRWSACNIYSTQNEVAAALAEAGVAVFAWKGESEDDFWWCIDRCVNMDGWQANMILDDGGDLTHWVYKKYPNVFKKIRGIVEESVTGVHRLYQLSKAGKLCVPAMNVNDSVTKQKFDNLYCCRESILDGLKRTTDVMFGGKQVVVCGYGEVGKGCCAALKALGAIVYITEIDPICALQACMDGFRVVKLNEVIRQVDVVITCTGNKNVVTREHLDRMKNSCIVCNMGHSNTEIDVTSLRTPELTWERVRSQVDHVIWPDGKRVVLLAEGRLLNLSCSTVPTFVLSITATTQALALIELYNAPEGRYKQDVYLLPKKMDEYVASLHLPSFDAHLTELTDDQAKYLGLNKNGPFKPNYYRY

System: proteins that co-immunoprecipitated with DUX4-CTD constructs expressed in MB135 myoblasts
Assay: LC-MS of proteins co-immunoprecipitated with DUX4-CTD (Table 1) and western validation
Assay type: binding, human
Parameters: key to 4. mL1dL2 + Dox + IFNG / 4. + IFNG mix / 4. longCTD + Dox + IFNG / 3. + IFNg + Dox longCTD / 3. + Dox longCTD / 3. + IFNG longCTD: peptide-spectrum matches (PSMs) per protein
Details: kind of count not given; for 4. mL1dL2 + Dox + IFNG: LC-MS value per protein co-immunoprecipitated with DUX4-CTD construct mL1dL2 in MB135 myoblasts; for 4. + IFNG mix: LC-MS value per protein co-immunoprecipitated from MB135 myoblasts, + IFNG mix sample (no Dox)
Outline: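 Two independent experiments compared uninduced, doxycycline and doxycycline+IFNG MB135iDUX4-CTD (plus MB135iDUX4mL1dL2) myoblasts. Anti-FLAG pulldowns (3 h, 4 °C) were eluted in LDS buffer for western validation or with FLAG peptide for trypsin digestion and Orbitrap LC-MS; hits needed ≥2 PSMs in both experiments, ranked by total PSMs.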

Molecule	4. mL1dL2 + Dox + IFNG	4. + IFNG mix
B1	1	
B2	16	
B3	2	
B4	4	6
B5	8	7
B6	1	
B7	1	5
B8	1	
